The nature of the data set: yeast display, Sf9 membrane polyspecificity reagent, FACS + sequencing; frameworks hold sequencing errors. Summed up: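 After 36–48 hours of galactose induction, yeast (Saccharomyces cerevisiae BJ5465) displaying a synthetic nanobody library were stained at 4 °C for 1 hour with 10% biotinylated, detergent-solubilized Sf9 membrane reagent. Streptavidin microbeads enriched the stained cells before FACS sorting into low and high (top ~1%) gates on anti-HA and streptavidin fluorescence. Each clone's polyreactivity label reflects its gate of origin.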
For the sequence “QVQLVESGGGLVQAGGSLRLSCAASGSIFDSNAMGWYRQAPGKERELVATISSVGSTNYADSVKGRFTISRDNAKNTVYLQMNSLKPEDTAVYYCARVVDAQGYYSAASGGYYWGQGTQVTVSS”, the “polyreactivity (PSR sort gate)” value is listed as “low polyreactivity”.

Turning to “QVQLVESGGGLVQAGGSLRLRCAASGSTFQTYAMGWYRQAPGKERELVAAITSGGATNYADSVKGRFTISRDNAKNTVFLQMNFLTPEVTAVYYCAVRLIDQTSDHRLQYDYWGQGTQVTVSS”, the “polyreactivity (PSR sort gate)” value is “low polyreactivity”.

Consider “QVQLVESGGGLVQAGGSLRLSCAASGSICAYYAMGWYRQAPGKERELVAAISGTGGSTNYADSVKGRFTISRDNAKNNVYLQMNSLKPEDTAVYYCAKDYSFQWRNEFNLAGEYDYWGQGTQVTVSS”, for which the “polyreactivity (PSR sort gate)” value is listed as “low polyreactivity”.

On to “QVQLVESGGGLVQAGGSLRLSCAASGITFYDNAMGWYRQAPGKERELVAAIRSGDSTYYADSVKGRFTISRDNAKNTVYLQMNSLKPEDTAVYYCAARTPWVYYWRFYYWGQGTQVTVSS”, for which the “polyreactivity (PSR sort gate)” value was “high polyreactivity”.

On to “QVQLVESGGGLVQAGGSLRLSCAASGLTFARYAMGWYRQAPGKERELVAGISWSGGRTYYADSVKGRFTISRDNAKNTVYLQMNSLKPEDTAVYYCATTQFQRSGYYYWGQGTQVTVSS”, for which the “polyreactivity (PSR sort gate)” value was “high polyreactivity”.

Take “QFQLVESGGGLVQAGGSLRLSCAASAGNFNRYAMGWYRQAPGKEMELVAAISSSGGPTYYADSVKGRFTISRDNAKNTVYLQMNSLKPEDSAVYYCNARYPRLHRTYNYWGQGTQVTVSS”: the “polyreactivity (PSR sort gate)” value is “high polyreactivity”.

Regarding “QVQLVESGGGLVQAGGSLRLSCAASGNIFSIYAMGWYRQAPGKERELVARITRVGSTYADSVKGRFTISRDNAKNTVYLQMNSLNPEDTAVYYCAADKNTPHASLDDFNDYDYWGQGTQVTVSS”, the “polyreactivity (PSR sort gate)” value is “high polyreactivity”.

As to “QVQLVESVGGLVQAGGSLRLSCAASGRIFNYNAMGWYRQAPGKERELVAAITSSGDSTNYADSVKGRFTISRDNAKNTVYLQMNSLKPEDTAVYYCNASSPYDYDWGQGTQVTVSS”, the “polyreactivity (PSR sort gate)” value is “low polyreactivity”.

For “QVQLVESGGGLVQAGGSLRLSCAASGSTFAPNALGWSRQAPGKERELVAAIRTNTVSTYYADSVKGRFTISRDNAKNTVYLQMNSLKPEDTEVYYCAAVFSGFYYAYDYWGQGTQVTVSS”, the “polyreactivity (PSR sort gate)” value is “high polyreactivity”.

For “QVQLVESGGGLVQAGGSLRLSCAASGGIFYVNAMGWYRQAPGKERELVAAITSDGVSTYYADSVKGRFTISRDNAKNTVYLQMNSLKPEDTAVYYCAARFQYYRKYDYWGQGTQVTVSS”, the “polyreactivity (PSR sort gate)” value is on record as “low polyreactivity”.

With “QVQLVESGGGLVQAGGSLSLSCAASGFTVYGYAMGWYRQAPGKERELVAAISRRSSSTYYADSVKGRFTISRDNAKNTVYLQMNSLKPEDTAVYYCNTVFQRTGYAAGVDYWGQGTQVTVSS”, the “polyreactivity (PSR sort gate)” value is on record as “high polyreactivity”.

Take “QVQLEESGGGLVQAGGSLRLTCAASGRIFYRYAMGWYRQAPGKEREFVAAISGTGGSTYYADSVKGRFTISRDNAKNTVNLQMNSLKPEDTAVYYCAAVSYYSSGYDYWGQGTQVTVSS”: the “polyreactivity (PSR sort gate)” value is listed as “high polyreactivity”.

Regarding “QVQLVESGGGLVQAGGSLRLSCAASGRTFYYAMGWYRPAPGKERELVAGITWSGGSTYYADSVKGRFTISRDNAKNTVYLQMNSLKPEDTAVYYCNAVYRYRTYRYDYWGQGTQVTVSS”, the “polyreactivity (PSR sort gate)” value was “high polyreactivity”.

With “QVQLVESGGGSVQAGGSLRLCCAASGRILESYAMGWYRQAPGKERELVAAINSGASTYYADSVKGRFTISRDNAKNTVYLPMNSLKPEDTAVYYCAADYRYGAYDDWGQGTQVTVSS”, the “polyreactivity (PSR sort gate)” value is on record as “low polyreactivity”.

Consider “QVQLVESGGGLVQAGGSLRLSCAASGFTLLGNTMGWYRQAPGKERELVAAIRTNSGRTYYADSVKGRFTISRDNAKNTVYLQMNSLKPEDTAVYYCAKRYFSYLGREMDYWGQGTQVTVSS”, for which the “polyreactivity (PSR sort gate)” value was “high polyreactivity”.

“QVQLEESGGGLVQAGGTLRLSCAASGSTYVPYAMGWNRQETGKERELVSAIRRRGDSTNYADSVKGRFTISRDNAKNTVYLQMNSLKPEDTAVYYCAVRPYRSACGSVTRGAYYYWGQGTQVTVSS”: the “polyreactivity (PSR sort gate)” value is “high polyreactivity”.

With “QVQLVESGGGLVQAGGSLRLSCAASGSTFGRYVMGWYRQAPGKERELVAAISYSGGRTYYADSVKGRFTISRDNAKNTVYLQMNSLKPEDTAVYYCAARVRTVRNTYYSWGQGTQVTVSS”, the “polyreactivity (PSR sort gate)” value was “high polyreactivity”.

“QVQLVESGGGLVQAGGSLRLSCAASGITFATNAMGWYRQAPGKERELVAAISWSGGSTYYADSVKGRFTISRDNAKNTVYLQMNSLKPEDTAVYYCATGYSVWYDYWGQGTQVTLSS”: the “polyreactivity (PSR sort gate)” value was “low polyreactivity”.

On to “QVQLVESGGGLVQAGGSLRLNCAASGSTFPKYAMGWYRQAPGKERELVAAISWSGDSTYYADSVKGRFTISRDNAKNSVYLKMNRLKPEDTAFYYCAAYNFIHAGPWVYEYWGQCTQVTVSS”, for which the “polyreactivity (PSR sort gate)” value was “low polyreactivity”.

Consider “QVQLVESGGGLVQAGGSLRLSCAASGGTFNSNAMGWYRQAPGKERELVASITWRCGTYYADSVKGRFTISRDNAKNTVYLQMNSLKPVDTAVYYCAADTYYKGDYWGQGTQVTVSS”, for which the “polyreactivity (PSR sort gate)” value is listed as “high polyreactivity”.

For “QVQLVESGGGLVQAGGSLRLSCAASGSIFKRYAMGWYRQAPGKERELVAAISYSGGSTYYADSVKGLFTISRDNAKNTVYLQMNSLKPEDTAVDYCARGWFYPYYWGQGTQVTVSS”, the “polyreactivity (PSR sort gate)” value is “high polyreactivity”.

With “QDQLVESGGGLVQAGGSLRLSCAASGSIFERYTMGWSRQAPGKERELVAAITTNGGSTYADSVKGRFTISRDNAKNTVYLQMNTLKPEDTADYYCNVDVYLYAKEYDYWGQGTQVTVSS”, the “polyreactivity (PSR sort gate)” value was “high polyreactivity”.

As to “QVQLLESGGGLVQAGGSLRLRCAASGSIFISYAMGWYRQAPGKERELVAAISIRGTRTYYADSVKGRFTISRDNAKNTVYLHMNCLKPEDTAVYYCAADASYTEGMDYWGQGTQGTVSS”, the “polyreactivity (PSR sort gate)” value was “high polyreactivity”.

In the case of “QVQLVESGGGFVQAGGSLRLSCAASGRIFGQYAMGWYRQAPGKERELVAAISQRGGSTYYADSVKGRFTISRDNAKNTVYLQMNSLKPEDTAVYYCAAPPRLIKSYGYNYWGQGTQVTVSS”, the “polyreactivity (PSR sort gate)” value was “high polyreactivity”.

As for “QVQLVESGGGLVQAGGSLRLSCAASGSTFGENAMGWYRQAPGKERELVAAISSGGSTNYADSVNGRFTISRDNAQNTVYLQMNSLQPEDTAVYYCNRYPVRDTGGYWGQGTQVTVSS”, the “polyreactivity (PSR sort gate)” value was “low polyreactivity”.

As to “QVQLVESGGGLVQAGGSLRLSCAASGRIFQRNAMGWYRLAPGKERELVAAITSTGVRTYYADSVKGRFTISRDNAKNTVYLQLNSLKPEDTAVYYCAVRGERRYIYDYWGQGTQVTVSS”, the “polyreactivity (PSR sort gate)” value is given as “high polyreactivity”.

Take “QVQHVESGGGLVQAGGSLRLSCAASGSTFPTYAMGWYRQAPGKERELVADITWSGGSTYYADSVKGRFTISRDNAKNTVYLQMNSLKPEDTAVYYCNAAHRKGMYYWGQGTQVTVSS”: the “polyreactivity (PSR sort gate)” value is “high polyreactivity”.

For the sequence “QLQLVESGGGLVQAGGSIRLSCAASGSIFYRYAKGWNRQAPGKESELVAAISSRGGSKYYADSVKARFTISRDNAKNTVYLQMNSLKPEDTAVYYCAARSGGSGGTYGYWGQGPQVTVSS”, the “polyreactivity (PSR sort gate)” value was “high polyreactivity”.

As for “QVQRVESGGGLVQAGGSLRLSCAASGSIFYRNVMGWYRPAPGKERELVAAISSGTSTYYADSVKGRFTISRDNAKNTVYLQMTSLKPEDPAVYYCAAEGPHYYGQRWYYGVDYWGQGTQVTVSS”, the “polyreactivity (PSR sort gate)” value was “low polyreactivity”.

On to “QVQLVESGGGLFQAGGSLRLSCAASGSIFVRNAMGWYRKATGKERELVAGISATGGSTYYADSVKGRFTISRDNAKITVYFQMKSLKPEDTAVYYCAKKVSTRFARYRYDYWGQVTQVTVSS”, for which the “polyreactivity (PSR sort gate)” value is “high polyreactivity”.

These data come from the nanobody polyreactivity screen of Harvey et al. (2022).
